# Laboratory results taken from WO2008118324A2 (dated 2008).
# T1: human UPK-Ib expressed on the surface of cells (human, UniProt O75841 1-260)
# T1 construct: whole, on cells; also called uroplakin Ib; UPK-1
# T1 sequence (looked up): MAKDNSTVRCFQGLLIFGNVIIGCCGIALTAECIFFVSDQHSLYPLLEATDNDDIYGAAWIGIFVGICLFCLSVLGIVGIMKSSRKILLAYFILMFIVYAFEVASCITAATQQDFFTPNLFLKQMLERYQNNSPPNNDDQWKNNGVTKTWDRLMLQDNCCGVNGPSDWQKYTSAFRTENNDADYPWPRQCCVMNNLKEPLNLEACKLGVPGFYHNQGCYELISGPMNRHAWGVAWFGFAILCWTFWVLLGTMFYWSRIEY
# Experiments:
# [1] = molecular target: T1, human UPK-Ib expressed on the surface …; assay: flow cytometry, antibody at 2 ug/mL on A549 and EKVX cells
# [2] = molecular target: T1, human UPK-Ib expressed on the surface …; assay: flow cytometry on a transitional cell carcinoma line
Binder,binding result [1],binding result [2]
"chimeric 1G9 containing the enhancing Fc mutant (antibody, V domains shown, domain: C-kappa segment; They are not tied to this construct; also called chlG9-mut; chlG9 Fc mut; not shown: human IgG1 constant region carrying the 'enhancing Fc mutant') VH: QVQLQQPGAELVRPGSSVKVSCKASGYTFSSYWMHWVKQRPIQGLEWIGNIDPSDSETHYNQKFKDKATLTVDKSSSTAYMQLSSLTSEDSAVYYCARSGAGTGPWLAYWGQGTLVTVSA VL: DIVMTQSPSSLTVTAGEKVTMTCKSSQSLLNSGNQKNYLTWYQQKPGQPPNPLIYWASTRESGVPDRFTGSGSGTDFTLTISSVQAEDLAVYYCQNDYSYPFTFGSGTKLEIKR",binds,–
"1G9 monoclonal antibody (murine) (antibody, V domains shown, Mouse (BALB/c) hybridoma antibody, tested as culture supernatant and detected with anti-mouse IgG; also called 1G9 MAb) VH: QVQLQQPGAELVRPGSSVKVSCKASGYTFSSYWMHWVKQRPIQGLEWIGNIDPSDSETHYNQKFKDKATLTVDKSSSTAYMQLSSLTSEDSAVYYCARSGAGTGPWLAYWGQGTLVTVSA VL: DIVMTQSPSSLTVTAGEKVTMTCKSSQSLLNSGNQKNYLTWYQQKPGQPPNPLIYWASTRESGVPDRFTGSGSGTDFTLTISSVQAEDLAVYYCQNDYSYPFTFGSGTKLEIK",–,binds
"5H9 monoclonal antibody (murine) (antibody, V domains shown, Mouse (BALB/c) hybridoma antibody, tested as culture supernatant and detected with anti-mouse IgG; also called 5H9 MAb; murine 5H9) VH: EVQLVESGGGLVQPKGSLKLSCAASGFSFNTYAMNWVRQAPGKGLEWVARIRSKSNNYATYYADSVKDRFTISRDDSESMLYLQMNNLKTEDTAMYYCVRQGDGYYVGWFAYWGQGTLVTVSA VL: DIQMTQTTSSLSASLGDRVTISCRASQDISNYLNWYQQKPDGTVKLLIYYTSRLHSGVPSRFSGSGSGTDYSLTISNLEQEDIATYFCQQGNTLPFTFGSGTKLEIK",–,binds
